Experiments:
FGF5 = target: T1, FGF5 (human, UniProt P12034 21-268); assay: SPR; 4 eq low-MW heparin; SPR (BIAcore X): 20 mM Tris-HCl pH 7.4, 200 mM NaCl, 5 mM MgCl2, 5 mM CaCl2, 0.05% Tween20, 4 eq low-MW heparin; temperature not stated; conditions: protein: commercial; label: none; multi-branched loop (predicted)
T1 sequence: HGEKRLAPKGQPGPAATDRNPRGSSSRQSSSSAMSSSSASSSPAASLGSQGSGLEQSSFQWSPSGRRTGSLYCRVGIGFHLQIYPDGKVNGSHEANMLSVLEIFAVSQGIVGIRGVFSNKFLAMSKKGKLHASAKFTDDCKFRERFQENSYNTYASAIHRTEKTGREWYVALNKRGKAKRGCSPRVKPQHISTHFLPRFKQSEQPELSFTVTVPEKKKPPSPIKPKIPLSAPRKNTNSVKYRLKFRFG

FGF6 = target: T2, FGF6 (human, UniProt P10767 38-208); assay: SPR; 100 nM protein, 4 eq low-MW heparin; SPR (BIAcore X): 20 mM Tris-HCl pH 7.4, 200 mM NaCl, 5 mM MgCl2, 5 mM CaCl2, 0.05% Tween20, 4 eq low-MW heparin; temperature not stated; conditions: protein: commercial; label: none; multi-branched loop (predicted)
T2 sequence: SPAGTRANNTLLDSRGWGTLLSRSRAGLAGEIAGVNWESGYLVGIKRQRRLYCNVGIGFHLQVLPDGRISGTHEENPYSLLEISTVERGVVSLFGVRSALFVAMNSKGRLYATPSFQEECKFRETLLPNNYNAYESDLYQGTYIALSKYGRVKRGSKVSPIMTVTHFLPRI

FGF4 = target: T3, FGF4 (human, UniProt P08620 31-206); assay: as above; conditions: protein: commercial; label: none; multi-branched loop (predicted)
T3 sequence: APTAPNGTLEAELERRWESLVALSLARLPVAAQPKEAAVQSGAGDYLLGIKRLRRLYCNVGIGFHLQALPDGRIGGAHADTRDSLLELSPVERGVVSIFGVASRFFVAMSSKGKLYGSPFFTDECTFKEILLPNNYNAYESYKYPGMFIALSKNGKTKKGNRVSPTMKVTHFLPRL

[1] = target: FGFR1alpha (IIIc)-Fc chimera (human, UniProt P11362 22-376); assay: as above; conditions: protein: commercial; tags: Fc; chain copies: 2; label: none; multi-branched loop (predicted)
FGF1 = FGF1 (human, UniProt P05230 16-155); assay: as above; conditions: protein: commercial; label: none; multi-branched loop (predicted)
FGF2 = FGF2 (human, UniProt P09038 143-288); assay: as above; conditions: protein: commercial; label: none; multi-branched loop (predicted)
Sequence of FGF2 (P09038 143-288): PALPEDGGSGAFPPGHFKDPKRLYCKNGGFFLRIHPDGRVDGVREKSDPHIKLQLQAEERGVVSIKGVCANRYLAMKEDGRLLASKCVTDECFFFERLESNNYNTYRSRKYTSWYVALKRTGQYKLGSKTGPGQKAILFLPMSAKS

Sequence of FGFR1alpha (IIIc)-Fc chimera (P11362 22-376, change not shown): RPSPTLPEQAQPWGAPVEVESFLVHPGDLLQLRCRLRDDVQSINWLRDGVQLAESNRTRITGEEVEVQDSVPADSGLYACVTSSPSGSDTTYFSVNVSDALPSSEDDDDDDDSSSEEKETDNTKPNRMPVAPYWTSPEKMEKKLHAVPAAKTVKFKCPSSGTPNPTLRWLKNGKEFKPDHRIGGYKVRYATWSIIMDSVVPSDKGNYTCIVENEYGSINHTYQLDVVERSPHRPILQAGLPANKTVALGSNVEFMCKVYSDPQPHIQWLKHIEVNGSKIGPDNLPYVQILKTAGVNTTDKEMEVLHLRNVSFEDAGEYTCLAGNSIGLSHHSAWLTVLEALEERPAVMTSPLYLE
Sequence of FGF1 (P05230 16-155): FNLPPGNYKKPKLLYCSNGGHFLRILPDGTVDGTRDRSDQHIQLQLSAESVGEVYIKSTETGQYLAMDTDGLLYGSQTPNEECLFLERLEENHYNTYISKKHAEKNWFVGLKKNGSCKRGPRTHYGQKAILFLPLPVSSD

B1: F5f3 (structured_RNA)
RNA: GGGCUAGCUGAUCGUACCUAGCGUGAAUCCAACACGCUUGACAUGCAAACUGCAUCCAGAUACUAACAGCUAACACCC
modifications: 2'-fluoro pyrimidines (all C and U)
Kd (FGF5): 0.57 ± 0.02 nM

B2: F5f3_56 (structured_RNA)
RNA: GGGCGACCUAGCGUGAAUCCAACACGCUUGACAUACAAACUGCAUCCAGAUCGCCC
modifications: 2'-fluoro pyrimidines (all C and U)
Kd (FGF5): 0.92 ± 0.04 nM

B3: F5f1_56 (structured_RNA)
RNA: GGGCGACCUCUCCGUACUGACCUACAGAGCGACAUACUAGUGUAUCCAGAUCGCCC
modifications: 2'-fluoro pyrimidines (all C and U)
Kd (FGF5): 0.118 ± 0.003 nM

B4: F5f1 (structured_RNA)
RNA: GGGCUAGCUGAUCGUACCUCUCCGUACUGACCUACAGAGCGACAUACUAGUGUAUCCAGAUACUAACAGCUAACACCC
modifications: 2'-fluoro pyrimidines (all C and U)
binding result (FGF6): no binding | binding result (FGF4): no binding | binding result [1]: no binding | binding result (FGF1): no binding | binding result (FGF2): no binding | Kd (FGF5): 0.7 ± 0.2 nM

Source: PMC7858594, “Specific inhibition of FGF5-induced cell proliferation by RNA aptamers”
